B1: antibody 1721 (SEQ ID Nos: 19 and 23), detector antibody for VIM (antibody, V domains shown)
VH: QVQLQQPGSVLVRPGTSVKLSCKASGYTFTSYWMHWVKQRPGQGLEWIGEIYPNSGKTNYNEKFKGKATLTVDTSSSTAYVALNSLTSEDSAVYYCAKRYSLYDFTLDYWGQGTSVTVSS
VL: DIKMTQSPKSMSMSVGERVTLTCKASENVGTFVSWYQQKLDQSPKLLIYGASKRYTGVPDRFTGSGSATDFTLAISSVQAEDLADYHCGQSFSYPLTFGAGTKLELKR
notes: The detector is labelled with biotin
B2: anti-OXA-48 antibody 1461 (antibody, V domains shown)
VH: QVQLKQSGAELGRPGSSVKLSCKTSGYKFKSYGINWVKQRPGQGLEWIGYIYPGSGYIEYNEKFQGEATLTSDTSSSTAYMQLRSLTSEDSAIYFCGRLGDGYFFYAMDYWGQGTSVTVSS
VL: QIVLTQSPTTMAASPGEKITITCSASSSISSNYMHWYQQKPGFSPKLLIYRTSNLGSGVPVRFSGSGSGTSYSLTIGTMEAEDVATYYCQQGSSIPFTFGSGTKLEIKR
notes: Used as capture antibody spotted on the array
B3: anti-VIM antibody 1071 (antibody, V domains shown)
VH: QVKLQQSGPELARPGASVKLSCKASGYTFRSYGITWVKQRTGQGLEWIGEIYPESNISYYNEKFKGTATLTTDKSSSTAYMQLSSLTSEDSAVYFCARRDYDGSYIYWGQGTTLTVSS
VL: QIVLTQSPTTMAASPGENITITCSASSSISSNFLHGYQQKPGFSPKLLIYRTSNLASGVPTRFSGSGSGTSYSLTIGTMEAEDVATYYCQQGDSLPRTFGGGTKLEIKR
notes: It was selected from a phage display Fab library; Used as capture antibody
B4: anti-NDM antibody 1041 (antibody, V domains shown)
VH: QVQLKQSGAELARPGASVKLSCKASGYTFRGYGISWVKQRTGQGLEWIGEIYPGSGNTHYNEKFKGKATLTADKSSSTAYMQLSSLTTEDSAVYFCADLGSWFANWGQGTLVTVSA
VL: DIVLTQSPATLSVTPGDSVSLSCRASQSIYNNLHWYQQKSHESPRLLIKYASQSISGIPSRFSGSGSGTDFTLSINSVETEDFGMYFCQQSNSWPYTFGAGTKLELKR
notes: as for B3
B5: anti-OXA-48 antibody 1281 (antibody, V domains shown)
VH: DVQLQQSGPEMVKPGASVKISCKAFGYTFSDYYMYWVKQSHGKSLEWIGRVNGNNGDTRYNQKFEGKATLTVDKSSSTAYMELNSLTSEDSAVYYCARGDYLAYWGQGTTLTVSS
VL: NIVLTQSPASLAVSLGQRASISCRAIKSVDSYGTSFMHWYQQKPGQPPKLLIYRASNLESGIPARFSGSGSRTDFTLTINPVEADDVATYYCHQSNEAPYTFGGGTKLEIKR
notes: It was selected from a phage display Fab library
B6: anti-NDM antibody 1121 (antibody, V domains shown)
VH: QVQLQQSEADLVRPGSSVKISCKASGYAFSNSWINWVKQRPGQGLEWIGQINPGDGNTKYNGKFKGKVILTADKSSSTAYMQLSSLTSEDSAVYFCERETPLWSFVYWGRGTLVTVSA
VL: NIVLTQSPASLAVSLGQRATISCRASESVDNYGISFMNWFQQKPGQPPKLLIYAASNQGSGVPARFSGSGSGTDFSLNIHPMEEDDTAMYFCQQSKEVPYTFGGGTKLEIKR
notes: Used as detector antibody, labelled with biotin

Columns and labels:
VIM carbapenemase = molecular target: T1, VIM carbapenemase (Pseudomonas aeruginosa (strain ATCC …, UniProt A0A0F7KYQ8 21-266)); experiment: sandwich on ArrayTube array as in Example 2; cell supernatant denatured 10 min at 99°C
T1 construct: The antigen in the assays came from VIM-positive strains or from supernatants of expressing cells

OXA-48 carbapenemase [1] = molecular target: T2, OXA-48 carbapenemase (Klebsiella pneumoniae, UniProt Q6XEC0 23-265); experiment: sandwich on ArrayTube array, 1461 capture and biotin-labelled 1281 detector, cultivated cells of clinical strains
NDM carbapenemase = molecular target: T3, NDM carbapenemase (Klebsiella pneumoniae, UniProt C7C422 29-270); experiment: sandwich on ArrayTube array as in Example 2; cell supernatant denatured 10 min at 99°C
T3 construct: The antigen in the assays came from NDM-positive strains or from supernatants of expressing cells

OXA-48 carbapenemase [2] = molecular target: T2, OXA-48 carbapenemase; experiment: as above

T2 sequence (Q6XEC0 23-265 limits assumed): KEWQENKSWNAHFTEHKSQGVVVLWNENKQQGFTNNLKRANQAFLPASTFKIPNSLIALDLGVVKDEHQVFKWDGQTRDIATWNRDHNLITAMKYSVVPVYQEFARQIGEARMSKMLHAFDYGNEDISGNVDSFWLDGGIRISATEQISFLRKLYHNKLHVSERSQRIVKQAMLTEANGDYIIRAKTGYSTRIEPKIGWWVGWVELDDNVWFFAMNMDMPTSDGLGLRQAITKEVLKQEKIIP
T3 sequence (C7C422 29-270 limits assumed): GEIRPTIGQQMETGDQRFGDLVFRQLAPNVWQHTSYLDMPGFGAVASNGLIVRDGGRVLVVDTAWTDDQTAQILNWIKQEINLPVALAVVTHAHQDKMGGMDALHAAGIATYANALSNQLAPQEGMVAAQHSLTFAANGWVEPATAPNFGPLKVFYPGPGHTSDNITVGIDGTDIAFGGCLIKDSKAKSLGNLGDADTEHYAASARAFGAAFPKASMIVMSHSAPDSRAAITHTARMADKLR

Row | Binder | binding result (VIM carbapenemase) | binding result (NDM carbapenemase) | other results
1 | B1 | binds | – | –
2 | B2 | – | – | binding result (OXA-48 carbapenemase [1]): binds
3 | B3 | binds | – | –
4 | B4 | – | binds | –
5 | B5 | – | – | binding result (OXA-48 carbapenemase [2]): binds
6 | B6 | – | binds | –
